{"source": "paper PMC5454382", "about": "(Nature Communications, 2017)", "key": {"His-tagged LDHA [1]": {"target": "T1, His-tagged LDHA (human, UniProt P00338 1-332)", "test": "pull-down; GST pull-down: GST-tagged protein on glutathione-sepharose resin incubated with His-tagged protein, 4 °C, 3 h", "conditions": "both partners purified"}, "His-tagged LDHA [2]": {"target": "T1, His-tagged LDHA", "test": "pull-down; recombinant proteins from E. coli (Supplementary Fig. 3d,e); which partner was immobilised is not given", "conditions": "both partners purified"}}}
{"binder": "GST-tagged hCINAP (enzyme, human, UniProt Q9Y3D8 1-172, looked up, hCINAP (adenylate kinase 6, AK6), human cDNA, wild type; Vector pGEX4T1 is named in the plasmids section; also called GST-hCINAP; glutathione S-transferase-tagged hCINAP; source: E. coli BL21(DE3), purified) MLLPNILLTGTPGVGKTTLGKELASKSGLKYINVGDLAREEQLYDGYDEEYDCPILDEDRVVDELDNQMREGGVIVDYHGCDFFPERWFHIVFVLRTDTNVLYERLETRGYNEKKLTDNIQCEIFQVLYEEATASYKEEIVHQLPSNKPEELENNVDQILKWIEQWIKDHNS", "values": [{"measurement": "binding result", "setting": "His-tagged LDHA [1]", "result": "binds"}]}
{"binder": "GST-tagged hCINAP (H79G) (enzyme, human, UniProt Q9Y3D8 1-172, looked up, hCINAP (adenylate kinase 6, AK6), human cDNA, H79G mutant with impaired adenylate kinase activity; also called H79G mutant hCINAP; source: E. coli BL21(DE3), purified) MLLPNILLTGTPGVGKTTLGKELASKSGLKYINVGDLAREEQLYDGYDEEYDCPILDEDRVVDELDNQMREGGVIVDYGGCDFFPERWFHIVFVLRTDTNVLYERLETRGYNEKKLTDNIQCEIFQVLYEEATASYKEEIVHQLPSNKPEELENNVDQILKWIEQWIKDHNS", "values": [{"measurement": "binding result", "setting": "His-tagged LDHA [2]", "result": "binds"}]}
